Source: patent US6063627

System: Cre recombinase (Bacteriophage P1)
Assay: cell_activity
Details: cotransfection with Cre-expressing plasmid

Work on Lox sites in pEOBglugl yielded an activity (log induction of beta-glucuronidase) of over 3.
